Assays:
[1] = target: cynomolgus monkey glypican-3 (GPC3) (cynomolgus monkey); assay: flow cytometry on CHO-S cells transfected with cynomolgus GPC3
[2] = target: human glypican-3 (GPC3) (human) (UniProt P51654); assay: flow cytometry on JHH-7 cells (GPC3-high)
[3] = target: human glypican-3 (GPC3) (human) (UniProt P51654); assay: flow cytometry on JHH-7 cells; v21995 in PBS (not incubated in plasma), day 0
[4] = target: human glypican-3 (GPC3) (human) (UniProt P51654); assay: flow cytometry on JHH-5 cells (GPC3-mid)
[5] = target: human glypican-3 (GPC3) (human) (UniProt P51654); assay: cell-based or functional assay
[6] = target: human glypican-3 (GPC3) (human) (UniProt P51654); assay: flow cytometry on CHO-S cells transfected with human GPC3
[7] = target: human GPC3 on cells (human) (UniProt P51654); assay: flow cytometry, JHH-7 cells; negative control

Substance	Kd [1]	Kd [2]	Bmax (MFI) [3]	Kd [3]	Kd [4]	JHH-5 Internalization (MFI) [5]	JHH-5 Internalization (MFI), Day 0 (in PBS) [5]	JHH-7 Internalization (MFI) [5]	JHH-7 Internalization (MFI), Day 0 (in PBS) [5]	Kd [6]	Kd [7]
palivizumab (anti-RSV antibody), v21995	> 150 nM	> 47 nM	309 MFI	37.7 nM	> 150 nM	399 MFI	506 MFI	265 MFI	4 MFI	> 150 nM	
v22277 (palivizumab) (antibody)											> 60 nM

From US20250295799A1, “ANTIBODY-DRUG CONJUGATES TARGETING GLYPICAN-3 AND METHODS OF USE” (Zymeworks BC Inc., priority 2022, published 2025)
